Tested on: MS2 coat protein
Experiment: apparent KD of MS2 coat protein; designed switch direction (-1 OFF switch, 1 ON switch): -1; higher = weaker reporter binding
Outline: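 Each step of the titration lasted 0.8–1.5 h at the lowest concentration and 10–20 min at the highest. The protein, SNAP-549-labelled MS2 coat protein, went from 0.7 or 1.5 nM doubling to 3 µM over RNA switches transcribed on Illumina chips by stalled E. coli RNA polymerase. Normalised cluster fluorescence was curve-fitted, and the per-design median over clusters is given as apparent KD.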

[1] = input ligand: microRNA oligo, concentration not stated
[2] = Eterna round: R95, input ligand: FMN 200 uM
[3] = Eterna round: R95, input ligand: microRNA oligo, concentration not stated
[4] = Eterna round: R95, input ligand: none

Sequence: AAAUCCCGAGGAUAUACAUGAGGAUCACCCAUGUAAUCAAACAGGGCAAAUUGAUCCGGUAGAAGGCGGACAAU [EX3 A.26] (Eterna round: R97, puzzle: Exclusion 3)
- apparent KD of MS2 coat protein (input ligand: FMN 200 uM): 26.6 nM
- apparent KD of MS2 coat protein (input ligand: none): 13.5 nM

Sequence: AAAUGACAUGAGGAUCACCCAUGUGGCCCUUAGACUCAUAUCGAGGAUAUCCAGGGCCGGGCCGUGGAGAAGGCGAAUUAAAAU [Edatriusti] (Eterna round: R96, puzzle: Exclusion NG 3)
- apparent KD of MS2 coat protein (input ligand: FMN 200 uM): 32.1 nM
- apparent KD of MS2 coat protein [1]: 26.1 nM
- apparent KD of MS2 coat protein (input ligand: none): 40.6 nM

Sequence: AAAUGCAGGUAAAGAUUCUACAUGAGGAUCACCCAUGUGCUCGUCUUAUAAAGUACUAUCACGAAAGUGAUAGUACA [Sensor 3, v1 - 41] (puzzle: Sensor v3, turn-off variant 1)
- apparent KD of MS2 coat protein [2]: 27.6 nM
- apparent KD of MS2 coat protein [3]: 268 nM
- apparent KD of MS2 coat protein [4]: 26.6 nM

Sequence: AAAUUAGCAAGUAGGUCCGACAUGAGGAUCACCCAUGUAAUCUAAUAUUACGCUGCAUGAGAGUGCGCUCGUCUUAA [Sensor-V1 #18] (Eterna round: R97, puzzle: Sensor, turn-off variant 1)
- apparent KD of MS2 coat protein (input ligand: FMN 200 uM): 196 nM
- apparent KD of MS2 coat protein (input ligand: none): 220 nM

Sequence: AAAUUGGUAGAGGAUAUCGCACAGGAAACACUGCGAGAAGGCUGCACAUGAGGAUCACCCAUGUUCAGUUGCGA [EX6 #38] (Eterna round: R97, puzzle: Exclusion 6)
- apparent KD of MS2 coat protein (input ligand: FMN 200 uM): 16.7 nM
- apparent KD of MS2 coat protein (input ligand: none): 14.8 nM

Sequence: AAAUUGGUAGAGGAUAUCGUACAGGAAACGGUGCGAGAAGGUUGCACAUGAGGAUCACCCAUGUUAAGUUGCGA [EX6 #45] (Eterna round: R97, puzzle: Exclusion 6)
- apparent KD of MS2 coat protein (input ligand: FMN 200 uM): 24.1 nM
- apparent KD of MS2 coat protein (input ligand: none): 26.8 nM

Sequence: AAAUUGUCAGGAUAUUGUUAGUUUAGUUGUUUGUAUUAGUUCGAGAAGGGACAUGAGGAUCACCCAUGUGAAAA [Ex4 #69] (Eterna round: R97, puzzle: Exclusion 4)
- apparent KD of MS2 coat protein (input ligand: FMN 200 uM): 38.3 nM
- apparent KD of MS2 coat protein (input ligand: none): 41.5 nM

Sequence: AAAUUGUGAGGAUAUUCGAUGAACACGGAGACGUGUUUAUCGGAGAAGGCACAUGAGGAUCACCCAUGUUCCUU [Mat - Exclusion 4 - JL Mod - D24] (Eterna round: R97, puzzle: Exclusion 4)
- apparent KD of MS2 coat protein (input ligand: FMN 200 uM): 80.4 nM
- apparent KD of MS2 coat protein (input ligand: none): 16.3 nM

Sequence: AAAUUGUGAGGAUAUUCGAUGAACUCGGAGACGAGUUUAUCGGAGAAGGCACAUGAGGAUCACCCAUGUUCCUU [Mat - Exclusion 4 - JL Mod - D23] (Eterna round: R97, puzzle: Exclusion 4)
- apparent KD of MS2 coat protein (input ligand: FMN 200 uM): 102 nM
- apparent KD of MS2 coat protein (input ligand: none): 18.5 nM

Sequence: AACAAGCUAGGAUAUACAUGAGGAUCACCCAUGUGCGACUGAUGUCCCGUGGUUGAGGGUAGAAGGAGCGAAAG [Qucelexe] (puzzle: Exclusion 3)
- apparent KD of MS2 coat protein [2]: 239 nM
- apparent KD of MS2 coat protein [3]: 210 nM
- apparent KD of MS2 coat protein [4]: 226 nM

Sequence: AACAAGCUUUAAAGAUCCCACAUGAGGAUCACCCAUGUGCUCGUCUUGUAACGUACUGUGACGAAAGUCACGGUACG [JL TOV1 3.28] (Eterna round: R97, puzzle: Sensor, turn-off variant 1)
- apparent KD of MS2 coat protein (input ligand: FMN 200 uM): 24.6 nM
- apparent KD of MS2 coat protein (input ligand: none): 23.9 nM

Sequence: AACACACAUGAGGAUCACCCAUGUGAGGAUAUCGUCGAGGAUGUAAUGCCAUCCGUGACGAGAAGGCACUUGGG [Exclusion 1 (Mod 3 solution 40 by Eternabot)] (Eterna round: R97, puzzle: Exclusion 1)
- apparent KD of MS2 coat protein (input ligand: FMN 200 uM): 58.8 nM
- apparent KD of MS2 coat protein (input ligand: none): 211 nM

Sequence: AACAGUACAGGAUAUACAUGAGGAUCACCCAUGUGAGAAUUAUGUGGCGUACCACAAAGUAGAAGGGUACUGGA [JL Maslow Revisted mod 3] (Eterna round: R96, puzzle: Exclusion 3)
- apparent KD of MS2 coat protein (input ligand: FMN 200 uM): 497 nM
- apparent KD of MS2 coat protein [1]: 61.3 nM
- apparent KD of MS2 coat protein (input ligand: none): 69.6 nM

Sequence: AACAGUCUAGAGGAUAUGCUGGAUUAAUAUCUGGCAGAAGGCUGGACAUGAGGAUCACCCAUGUAAAUACUACC [Omei Ex6 A1] (Eterna round: R97, puzzle: Exclusion 6)
- apparent KD of MS2 coat protein (input ligand: FMN 200 uM): 137 nM
- apparent KD of MS2 coat protein (input ligand: none): 44.3 nM

Sequence: AACCAGAUGAAACACAGGCACAUGAGGAUCACCCAUGUCUUAGAGCAUUCGGGUAAUCGGCUCGUUUUAAUUAGAAC [Eternabot (L1) Solution 22] (Eterna round: R97, puzzle: Sensor, turn-off variant 1)
- apparent KD of MS2 coat protein (input ligand: FMN 200 uM): 279 nM
- apparent KD of MS2 coat protein (input ligand: none): 344 nM

Sequence: AACCAGCGAGGAUAUGCUUGAGCUUGUUCUGGUCAGAAUCGACUUGAGGAUCACCCAAGUAGAAGGUGCUGACG [EX2 #60] (Eterna round: R97, puzzle: Exclusion 2)
- apparent KD of MS2 coat protein (input ligand: FMN 200 uM): 18.7 nM
- apparent KD of MS2 coat protein (input ligand: none): 16.9 nM

Sequence: AACCAGCGAGGAUAUGCUUGCGCGUGUUCUGGUUAUAAUCGACUUGAGGAUCACCCAAGUAGAAGGUGCUGGCG [EX2 #55] (Eterna round: R97, puzzle: Exclusion 2)
- apparent KD of MS2 coat protein (input ligand: FMN 200 uM): 360 nM
- apparent KD of MS2 coat protein (input ligand: none): 147 nM

Sequence: AACCAUGAGCGAGGAUAUCACCCUACGGAGUGGUGAGAAGGCGCAACAUGAGGAUCACCCAUGUACAAAUGCGGGACCCUUUUC [Zaorredila] (Eterna round: R96, puzzle: Exclusion NG 1)
- apparent KD of MS2 coat protein [1]: 21.6 nM

Sequence: AACCCUAGGGUCAGACGCACAAGCUUUUUGCUCGUUUUAACAUGAGGAUCACCCAUGUCUAGUGGAUCUGAUCGGGC [Isreen] (puzzle: Sensor v3, turn-off variant 2)
- apparent KD of MS2 coat protein [2]: 24.7 nM
- apparent KD of MS2 coat protein [3]: 137 nM
- apparent KD of MS2 coat protein [4]: 26.2 nM

Sequence: AACCUAGUCAUAGGAUAUACAGGCAAAGCCAAAGUAGAAGGAUGACACAUGAGGAUCACCCAUGUGGUCCUUGAACAAAAUAAC [Esatier] (Eterna round: R96, puzzle: Exclusion NG 1)
- apparent KD of MS2 coat protein [1]: 24.1 nM

Sequence: AACCUGAGGCAAAGCUUUAGGUGUACAUGAGGAUCACCCAUGUAGGAUAUGGUAGGCAAAGCUUACCAGAAGGACAUGUUAAUU [Mat - Exclusion NG 3 - Mod of JL - D38] (Eterna round: R96, puzzle: Exclusion NG 3)
- apparent KD of MS2 coat protein (input ligand: FMN 200 uM): 172 nM
- apparent KD of MS2 coat protein [1]: 61.5 nM
- apparent KD of MS2 coat protein (input ligand: none): 67 nM

Sequence: AACGACUGAGGAUAUACAUGAGGAUCACCCAUGUAUUGAAAUACGUGCUUGGUCAACUGUAGAAGGCAGAAUAA [Oresza] (puzzle: Exclusion 3)
- apparent KD of MS2 coat protein [3]: 15.9 nM

Sequence: AACGUGCUGCGAGGAUAUACAUGAGGAUCACCCAUGUGGAUGUCUGAGGCAAAGCCUCAGACAAUGUAGAAGGCGCAGUACGAA [Mat - Exclusion NG 2 - Mod of JL - D57] (Eterna round: R96, puzzle: Exclusion NG 2)
- apparent KD of MS2 coat protein (input ligand: FMN 200 uM): 72.5 nM
- apparent KD of MS2 coat protein [1]: 18.7 nM
- apparent KD of MS2 coat protein (input ligand: none): 19.6 nM

Sequence: AACUAGUCAGGAUAUACGAACAUGUCAAAAAACAUAAAGGGACAUGAGGAUCACCCAUGUAGAAGGGACUAGCA [74%, Web mod - With 4 less G's] (Eterna round: R96, puzzle: Exclusion 2)
- apparent KD of MS2 coat protein [1]: 150 nM

Sequence: AACUAUUUAGGAUAUCAGGCGAACCACAUGAGGAUCACCCAUGUGGCCCGUUGUGGUCCUUGAGAAGGAAAGAGUU [EX5 B.15] (Eterna round: R97, puzzle: Exclusion 5)
- apparent KD of MS2 coat protein (input ligand: FMN 200 uM): 53.5 nM
- apparent KD of MS2 coat protein (input ligand: none): 22.7 nM

Sequence: AACUGUCUAAAGGAUAUGCUGGAUUAAUAUCUGGCAGAAGGUUAGACAUGAGGAUCACCCAUGUAAAUACCACC [Omei Ex6 A10] (Eterna round: R97, puzzle: Exclusion 6)
- apparent KD of MS2 coat protein (input ligand: FMN 200 uM): 106 nM
- apparent KD of MS2 coat protein (input ligand: none): 19.5 nM

Sequence: AAGAAACAUGAGGAUCACCCAUGUGAGGAUAUAGAAAAGAAAGAAAGAAAGAAAGAAACUAGAAGGCACAAAGA [It's All Mine] (puzzle: Exclusion 1)
- apparent KD of MS2 coat protein [2]: 24.6 nM
- apparent KD of MS2 coat protein [3]: 39.2 nM
- apparent KD of MS2 coat protein [4]: 26.1 nM

Sequence: AAGAAACAUGAGGAUCACCCAUGUGAGGAUAUGAAAAAUAAAAUAAAAGAAAUAAUAAUCAGAAGGCACAAAGG [Mat - Mod of Hog D8] (puzzle: Exclusion 1)
- apparent KD of MS2 coat protein [2]: 44.5 nM
- apparent KD of MS2 coat protein [3]: 36.1 nM
- apparent KD of MS2 coat protein [4]: 30.5 nM

Sequence: AAGAAACAUGAGGAUCACCCAUGUGAGGAUAUGACAAAGAAAAGAAAAGAAAGAAGAUUCAGAAGGCACAAAGG [salish99-ex1_r3_036] (puzzle: Exclusion 1)
- apparent KD of MS2 coat protein [2]: 90.5 nM
- apparent KD of MS2 coat protein [3]: 53.6 nM
- apparent KD of MS2 coat protein [4]: 70.4 nM

Sequence: AAGAAACAUGAGGAUCACCCAUGUGAGGAUAUGAGAAAGAAAAGAAAAGAAAGAAGACUCAGAAGGCACAAAGG [salish99-ex1_r3_040] (puzzle: Exclusion 1)
- apparent KD of MS2 coat protein [2]: 152 nM
- apparent KD of MS2 coat protein [3]: 54.7 nM
- apparent KD of MS2 coat protein [4]: 120 nM

Sequence: AAGAAACAUGAGGAUCACCCAUGUGAGGAUAUGAGGAAGAAAAGAAAAGAAAGAAGAAUCAGAAGGCACAAAGG [salish99-ex1_r3_049] (puzzle: Exclusion 1)
- apparent KD of MS2 coat protein [2]: 56.3 nM
- apparent KD of MS2 coat protein [3]: 36.5 nM
- apparent KD of MS2 coat protein [4]: 43.6 nM

Sequence: AAGAAACAUGAGGAUCACCCAUGUGAGGAUAUGAUGAAGAAAAGAAAAGAAAGAAGAGUCAGAAGGCACAAAGG [salish99-ex1_r3_064] (puzzle: Exclusion 1)
- apparent KD of MS2 coat protein [2]: 96 nM
- apparent KD of MS2 coat protein [3]: 55.9 nM
- apparent KD of MS2 coat protein [4]: 69.2 nM

Sequence: AAGAAACAUGAGGAUCACCCAUGUGAGGAUAUGGCCCGCCCGGCGUGAGCAAAAUAAAUCAGAAGGCACAAAGG [salish99_ex1_r4_009] (Eterna round: R97, puzzle: Exclusion 1)
- apparent KD of MS2 coat protein (input ligand: FMN 200 uM): 41 nM
- apparent KD of MS2 coat protein (input ligand: none): 30.6 nM

Sequence: AAGAAACAUGAGGAUCACCCAUGUGAGGAUAUGGCCCGCCCGGCGUGAGCUAAAUAAAUCAGAAGGCACAAAGG [salish99_ex1_r4_010] (Eterna round: R97, puzzle: Exclusion 1)
- apparent KD of MS2 coat protein (input ligand: FMN 200 uM): 24.6 nM
- apparent KD of MS2 coat protein (input ligand: none): 42.2 nM

— the supplement of paper PMC9170038
